Source: article PMC4039629

Experiments:
GST-MYC(1-263) (human) = experiment: pull-down + cross-linking
GST-MYC 1-98 (human) = experiment: pull-down
[1] = molecular target: GST-MYC(2-108) E100A (human); experiment: pull-down
[2] = molecular target: GST-MYC(2-108) E[54,100]A (human); experiment: pull-down
[3] = molecular target: GST-MYC(2-108) E54A (human); experiment: pull-down

Substance	percent of the protein in the extract crosslinked (GST-MYC(1-263) (human)) [%]	percent reduction of GCN5 binding on deletion of residues 99-108 (GST-MYC 1-98 (human)) [%]	percent reduction of GCN5 binding against wt GST-MYC(2-108) [1] [%]	percent reduction of GCN5 binding against wt GST-MYC(2-108) [2] [%]	percent reduction of GCN5 binding against wt GST-MYC(2-108) [3] [%]
GCN5 acetyltransferase, endogenous in HeLa cells (from UniProt Q92830 1-837) (enzyme)	1				
purified recombinant human GCN5-S (pRSETA-His6-GCN5-S) (enzyme)		90	20	50	40
transcription/transformation-associated protein (TRRAP), endogenous in HeLa cells (from UniProt Q9Y4A5 1-3859) (natural protein)	1				
